Results on 1 molecule are retold here after US20220267444A1 (CTTQ AKESO SHANGHAI BIOMED TECH, published 2022).

The target in assay [1] is T1, Fc receptor FcγRIIIa_V158 (UniProt P08637 17-208). Briefly: BLI (Fortebio Octet); sentence on Table 2, differs from the table's 6.12E-07. As for the experimental part:
(§1) 5 μg/mL FcγRIIIa_V158 was immobilized on the HIS1K sensor for 120 s. The sensor was equilibrated in a buffer for 60 s, and the binding of the immobilized FcγRIIIa_V158 on the sensor to the antibodies at concentrations of 31.25-500 nM (serial two-fold dilution) was determined for 60 s. The antibody was dissociated in the buffer for 60 s. The sensor was refreshed 4 times in 10 mM glycine pH 1.5, each for 5 s. The temperature was 30° C. and the frequency was 0.3 Hz. The data were analyzed by 1:1 model fitting to obtain affinity constants.
For orientation: Biolayer interferometry detects binding as a change in optical thickness at a sensor tip.

Assay [2] addresses T1, Fc receptor FcγRIIIa_V158. Briefly: BLI (Fortebio Octet); FcγRIIIa_V158 on HIS1K sensor, antibody 31.25-500 nM; 1:1 fit. Here is the method:
as §1

The next assay deals with Serum complement C1q (UniProt P02745 23-245; P02746 28-253; P02747 29-245). The experiment in a line: BLI (Fortebio Octet), antibody immobilised on FAB2G sensor, C1q in solution at 1.25-20 nM. Here is the method:
50 μg/mL antibody was immobilized on the FAB2G sensor at an immobilization height of about 2.0 nm. The sensor was equilibrated in a buffer for 60 s for blocking, and the binding of the immobilized antibody on the sensor to the antigen C1q at concentrations of 1.25-20 nM (serial two-fold dilution) was determined for 60 s. The antigen and antibody were dissociated in the buffer for 60 s. The sensor was refreshed 4 times in 10 mM glycine pH 1.7, each for 5 s. The shaking speed of the sample plate was 1000 rpm, the temperature was 30° C. and the frequency was 0.6 Hz. The data were analyzed by 1:1 model fitting to obtain affinity constants. The data acquisition software was Fortebio Data Acquisition 7.0, and the data analysis software was Fortebio Data Analysis 7.0.

Another assay concerns the target T2, Fc receptor FcγRIIb (human, UniProt P31994 43-217).
T2 construct: also called CD32b; hFcγRIIb-his; not shown: his tag named in 'hFcγRIIb-his'
T2 sequence (looked up): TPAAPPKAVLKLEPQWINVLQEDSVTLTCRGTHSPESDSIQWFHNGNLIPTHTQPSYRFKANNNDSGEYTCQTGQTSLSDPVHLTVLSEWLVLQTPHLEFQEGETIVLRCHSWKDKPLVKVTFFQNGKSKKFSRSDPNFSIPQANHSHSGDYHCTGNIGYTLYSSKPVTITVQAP
Briefly: BLI (Fortebio Octet), hFcγRIIb-his immobilised on NTA sensor, antibody in solution at 12.5-200 nM. Here is the method:
5 μg/mL hFcγRIIb-his was immobilized on the NTA sensor at an immobilization height of about 1.0 nm. The sensor was equilibrated in a buffer of 0.02% Tween-20, 0.02% casein and 0.1% BSA in PBS, pH 7.4 for 300 s of blocking, and the binding of the immobilized hFcγRIIb-his on the sensor to the antibodies at concentrations of 12.5-200 nM (serial two-fold dilution) was determined for 60 s. The antibody was dissociated in the buffer for 60 s. The sensor was refreshed in 10 mM glycine pH 1.7 and […] nickel sulfate. The temperature was 30° C. and the frequency was 0.6 Hz. The data were analyzed by 1:1 model fitting to obtain affinity constants.

Assay [3] deals with Fc receptor FcγRIIIa_F158 (UniProt P08637 17-208). Briefly: BLI (Fortebio Octet), FcγRIIIa_F158 immobilised on HIS1K sensor, antibody in solution at 31.25-500 nM. Here is the method: 5 μg/mL FcγRIIIa_F158 was immobilized on the HIS1K sensor for 120 s. The sensor was equilibrated in a buffer for 60 s, and the binding of the immobilized FcγRIIIa_F158 on the sensor to the antibodies at concentrations of 31.25-500 nM (serial two-fold dilution) was determined for 60 s. The antibody was dissociated in the buffer for 60 s. The sensor was refreshed 4 times in 10 mM glycine pH 1.5, each for 5 s. The temperature was 30° C. and the frequency was 0.3 Hz. The data were analyzed by 1:1 model fitting to obtain affinity constants.
Fc receptor FcγRIIIa_F158, sequence (P08637 17-208 limits assumed): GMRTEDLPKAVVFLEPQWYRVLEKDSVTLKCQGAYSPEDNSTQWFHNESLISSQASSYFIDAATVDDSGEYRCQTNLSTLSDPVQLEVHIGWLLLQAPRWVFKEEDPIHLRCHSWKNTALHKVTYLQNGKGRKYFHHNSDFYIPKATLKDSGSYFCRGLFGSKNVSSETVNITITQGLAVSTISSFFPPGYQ

T1 sequence (P08637 17-208 F176V limits assumed): as the sequence (P08637 17-208 limits assumed) above, with F160V counted along it
Serum complement C1q, sequence (P02745 23-245 limits assumed, chain 1 of 3): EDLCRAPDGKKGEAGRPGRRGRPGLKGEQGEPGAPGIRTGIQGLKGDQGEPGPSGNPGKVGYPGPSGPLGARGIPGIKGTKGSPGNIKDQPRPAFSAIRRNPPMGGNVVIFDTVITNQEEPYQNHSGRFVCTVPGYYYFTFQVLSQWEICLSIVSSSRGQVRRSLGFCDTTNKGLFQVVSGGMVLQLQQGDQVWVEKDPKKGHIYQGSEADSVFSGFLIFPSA
Serum complement C1q, sequence (P02746 28-253 limits assumed, chain 2 of 3): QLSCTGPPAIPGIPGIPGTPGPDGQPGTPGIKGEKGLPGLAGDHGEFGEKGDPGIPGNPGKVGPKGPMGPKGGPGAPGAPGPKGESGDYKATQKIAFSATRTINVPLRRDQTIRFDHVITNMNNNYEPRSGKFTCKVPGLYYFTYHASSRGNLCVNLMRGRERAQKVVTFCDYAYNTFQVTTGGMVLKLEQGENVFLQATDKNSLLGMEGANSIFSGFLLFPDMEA
Serum complement C1q, sequence (P02747 29-245 limits assumed, chain 3 of 3): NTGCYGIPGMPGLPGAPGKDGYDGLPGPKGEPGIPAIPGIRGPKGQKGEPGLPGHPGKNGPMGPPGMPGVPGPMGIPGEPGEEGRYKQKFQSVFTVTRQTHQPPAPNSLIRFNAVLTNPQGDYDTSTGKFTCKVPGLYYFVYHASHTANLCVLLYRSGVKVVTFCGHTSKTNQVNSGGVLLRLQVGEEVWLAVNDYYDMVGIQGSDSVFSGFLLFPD

B1: 14C12H1L1(hG1DM) (antibody, human IgG1, kappa, L234A L235A)
heavy: not shown
light: DIQMTQSPSSMSASVGDRVTFTCRASQDINTYLSWFQQKPGKSPKTLIYRANRLVSGVPSRFSGSGSGQDYTLTISSLQPEDMATYYCLQYDEFPLTFGAGTKLELKRTVAAPSVFIFPPSDEQLKSGTASVVCLLNNFYPREAKVQWKVDNALQSGNSQESVTEQDSKDSTYSLSSTLTLSKADYEKHKVYACEVTHQGLSSPVTKSFNRGEC
notes: Humanized anti-PD-1 IgG1 mutant of 14C12H1L1(hG1WT) with L234A and L235A in the heavy chain
A word on the Kd: it is the constant that tells how readily two partners part at equilibrium. Read a high Kd as a looser complex. For orientation: koff means the rate constant with which the complex falls apart. A high value points to fast dissociation. Broadly, the kon is a measure of how fast the partners come together. Lower therefore signals slower complex formation. With B1, the Kd in assay [1] was found to be 621 nM; in assay [2], 612 nM. Also, the koff in assay [2] was 0.0824 s⁻¹. Besides, the kon in assay [2] was 135000 M⁻¹ s⁻¹. Further, the binding result was “no binding (tested: 20 nM)” with Serum complement C1q, “no binding (tested: 200 nM)” in the assay with Fc receptor FcγRIIb and “no binding (tested: 500 nM)” in assay [3].
